tested on: Escherichia coli TOP10; test: shrunken log2 fold change of peptide-encoding DNA abundance (4.5 h post-induction vs induction); higher = less antimicrobial activity (less host growth inhibition); details: time post-induction: 4.5 h; library: site-saturation at positions 5, 18, 19, 20
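Also: peptides expressed intracellularly from a pBAD plasmid library in pooled LB shake-flask culture, induced with 0.3% L-arabinose, DNA abundance read by NGS, three biological replicates, DESeq2 with apeglm shrinkage.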

Compared with RRIRCRPPRLPRPRPRPSEWPRP, RRIRSRPPRLPRPRPRPGNSPRP is higher in “shrunken log2 fold change” value: -0.214 for the first, 0.0554 for the second.

First: RRIRQRPPRLPRPRPRPHGNPRP
Second: RRIRVRPPRLPRPRPRPMYTPRP
The “shrunken log2 fold change” value of the first is higher: 0.0941 for the first, -0.23 for the second.

First: RRIRYRPPRLPRPRPRPHHHPRP
Second: RRIRHRPPRLPRPRPRPLDRPRP
The “shrunken log2 fold change” value of the first is lower: -1.09 for the first, -0.56 for the second.

Compared with RRIRKRPPRLPRPRPRPCFLPRP, RRIRVRPPRLPRPRPRPTASPRP is higher in “shrunken log2 fold change” value: -0.0702 for the first, 0.541 for the second.

Going from RRIRHRPPRLPRPRPRPACHPRP to RRIRRRPPRLPRPRPRPDLCPRP, the “shrunken log2 fold change” value rises from -0.2 to 0.00591.

Compared with RRIRIRPPRLPRPRPRPFWSPRP, RRIRQRPPRLPRPRPRPPWWPRP is higher in “shrunken log2 fold change” value: 0.0627 for the first, 0.498 for the second.

RRIRIRPPRLPRPRPRPYHSPRP and RRIRPRPPRLPRPRPRPCGFPRP are within 0.2 log units of each other in “shrunken log2 fold change” value: -0.00112 for the first, 0.183 for the second.

Going from RRIRFRPPRLPRPRPRPTLPPRP to RRIRWRPPRLPRPRPRPAWEPRP, the “shrunken log2 fold change” value rises from 0.23 to 0.534.

Going from RRIRPRPPRLPRPRPRPQMMPRP to RRIRLRPPRLPRPRPRPGQNPRP, the “shrunken log2 fold change” value rises from -0.41 to -0.18.

Compared with RRIRWRPPRLPRPRPRPNIEPRP, RRIRYRPPRLPRPRPRPSCKPRP is lower in “shrunken log2 fold change” value: -0.0429 for the first, -0.908 for the second.

RRIRVRPPRLPRPRPRPADMPRP and RRIRVRPPRLPRPRPRPPIFPRP are within 0.2 log units of each other in “shrunken log2 fold change” value: -0.173 for the first, -0.067 for the second.

Going from RRIRERPPRLPRPRPRPHNLPRP to RRIRSRPPRLPRPRPRPAEQPRP, the “shrunken log2 fold change” value rises from -0.47 to 0.0415.

RRIRSRPPRLPRPRPRPYNVPRP and RRIRFRPPRLPRPRPRPRREPRP are within 0.2 log units of each other in “shrunken log2 fold change” value: 0.00567 for the first, 0.177 for the second.

RRIRTRPPRLPRPRPRPEEQPRP and RRIRIRPPRLPRPRPRPEKEPRP are within 0.2 log units of each other in “shrunken log2 fold change” value: 0.0262 for the first, -0.00237 for the second.

RRIRPRPPRLPRPRPRPDGAPRP and RRIRKRPPRLPRPRPRPTTLPRP are within 0.2 log units of each other in “shrunken log2 fold change” value: 0.159 for the first, 0.0155 for the second.

Going from RRIRLRPPRLPRPRPRPSPVPRP to RRIRCRPPRLPRPRPRPCFHPRP, the “shrunken log2 fold change” value falls from -0.186 to -0.597.

First: RRIRDRPPRLPRPRPRPDMHPRP
Second: RRIRVRPPRLPRPRPRPYPTPRP
The “shrunken log2 fold change” value of the first is higher: 0.633 for the first, -0.398 for the second.

RRIRVRPPRLPRPRPRPVQSPRP and RRIRKRPPRLPRPRPRPGWKPRP are within 0.2 log units of each other in “shrunken log2 fold change” value: -0.104 for the first, 0.0274 for the second.

RRIRLRPPRLPRPRPRPADFPRP and RRIRARPPRLPRPRPRPHNRPRP are within 0.2 log units of each other in “shrunken log2 fold change” value: -0.0534 for the first, -0.00621 for the second.

RRIRERPPRLPRPRPRPTCQPRP and RRIRRRPPRLPRPRPRPHQHPRP are within 0.2 log units of each other in “shrunken log2 fold change” value: 0.00216 for the first, 0.0389 for the second.

RRIRPRPPRLPRPRPRPPNTPRP and RRIRKRPPRLPRPRPRPVDTPRP are within 0.2 log units of each other in “shrunken log2 fold change” value: 0.179 for the first, 0.0388 for the second.

RRIRERPPRLPRPRPRPPLCPRP and RRIRVRPPRLPRPRPRPDHVPRP are within 0.2 log units of each other in “shrunken log2 fold change” value: 0.124 for the first, -0.0193 for the second.

RRIRDRPPRLPRPRPRPEWYPRP and RRIRARPPRLPRPRPRPNFPPRP are within 0.2 log units of each other in “shrunken log2 fold change” value: 0.0233 for the first, -0.0362 for the second.

Going from RRIRHRPPRLPRPRPRPYPPPRP to RRIRYRPPRLPRPRPRPRYRPRP, the “shrunken log2 fold change” value rises from -0.694 to -0.0551.

Going from RRIRARPPRLPRPRPRPQWTPRP to RRIRARPPRLPRPRPRPMFMPRP, the “shrunken log2 fold change” value rises from 0.164 to 0.749.

First: RRIRTRPPRLPRPRPRPYEQPRP
Second: RRIRERPPRLPRPRPRPCVMPRP
The “shrunken log2 fold change” value of the first is higher: -0.0291 for the first, -0.41 for the second.

Compared with RRIRPRPPRLPRPRPRPHMEPRP, RRIRWRPPRLPRPRPRPANKPRP is lower in “shrunken log2 fold change” value: -0.0417 for the first, -0.348 for the second.

RRIRERPPRLPRPRPRPEQQPRP and RRIRRRPPRLPRPRPRPFWAPRP are within 0.2 log units of each other in “shrunken log2 fold change” value: -0.0255 for the first, 0.0811 for the second.

RRIRPRPPRLPRPRPRPWQIPRP and RRIRKRPPRLPRPRPRPPCCPRP are within 0.2 log units of each other in “shrunken log2 fold change” value: 0.452 for the first, 0.39 for the second.

Going from RRIRTRPPRLPRPRPRPECYPRP to RRIRWRPPRLPRPRPRPGIMPRP, the “shrunken log2 fold change” value rises from -0.0535 to 0.238.

RRIRCRPPRLPRPRPRPDWLPRP and RRIRVRPPRLPRPRPRPEDVPRP are within 0.2 log units of each other in “shrunken log2 fold change” value: -0.0386 for the first, 0.0203 for the second.

Compared with RRIRARPPRLPRPRPRPKNMPRP, RRIRIRPPRLPRPRPRPGHEPRP is higher in “shrunken log2 fold change” value: -0.191 for the first, 0.018 for the second.

RRIRYRPPRLPRPRPRPKQLPRP and RRIRFRPPRLPRPRPRPNANPRP are within 0.2 log units of each other in “shrunken log2 fold change” value: 0.0588 for the first, -0.0822 for the second.

RRIRIRPPRLPRPRPRPVQYPRP and RRIRIRPPRLPRPRPRPEPDPRP are within 0.2 log units of each other in “shrunken log2 fold change” value: -0.106 for the first, -0.00501 for the second.

Compared with RRIRIRPPRLPRPRPRPTFRPRP, RRIRLRPPRLPRPRPRPFVEPRP is lower in “shrunken log2 fold change” value: -0.261 for the first, -0.478 for the second.

Compared with RRIRNRPPRLPRPRPRPESSPRP, RRIRFRPPRLPRPRPRPHVPPRP is lower in “shrunken log2 fold change” value: -0.00568 for the first, -0.315 for the second.

RRIRNRPPRLPRPRPRPKCIPRP and RRIRPRPPRLPRPRPRPHRQPRP are within 0.2 log units of each other in “shrunken log2 fold change” value: -0.223 for the first, -0.149 for the second.

RRIRTRPPRLPRPRPRPPLEPRP and RRIRCRPPRLPRPRPRPPSPPRP are within 0.2 log units of each other in “shrunken log2 fold change” value: 0.531 for the first, 0.724 for the second.

RRIRRRPPRLPRPRPRPRIHPRP and RRIRARPPRLPRPRPRPHISPRP are within 0.2 log units of each other in “shrunken log2 fold change” value: -0.113 for the first, -0.278 for the second.

First: RRIRQRPPRLPRPRPRPPPTPRP
Second: RRIRARPPRLPRPRPRPMRSPRP
The “shrunken log2 fold change” value of the first is higher: 0.913 for the first, 0.0669 for the second.

RRIRARPPRLPRPRPRPYTRPRP and RRIRIRPPRLPRPRPRPDYGPRP are within 0.2 log units of each other in “shrunken log2 fold change” value: -0.124 for the first, -0.117 for the second.

Going from RRIRQRPPRLPRPRPRPYQYPRP to RRIRNRPPRLPRPRPRPYFYPRP, the “shrunken log2 fold change” value falls from -0.016 to -0.345.

RRIRRRPPRLPRPRPRPDTAPRP and RRIRTRPPRLPRPRPRPMISPRP are within 0.2 log units of each other in “shrunken log2 fold change” value: -0.0709 for the first, -0.0443 for the second.

RRIRQRPPRLPRPRPRPVNCPRP and RRIRERPPRLPRPRPRPHPDPRP are within 0.2 log units of each other in “shrunken log2 fold change” value: -0.0672 for the first, 0.0161 for the second.

Compared with RRIRLRPPRLPRPRPRPAKDPRP, RRIRPRPPRLPRPRPRPAMWPRP is higher in “shrunken log2 fold change” value: -0.136 for the first, 0.251 for the second.

Going from RRIRYRPPRLPRPRPRPVYFPRP to RRIRCRPPRLPRPRPRPWYGPRP, the “shrunken log2 fold change” value rises from -1.42 to -0.49.

RRIRDRPPRLPRPRPRPWAQPRP and RRIRYRPPRLPRPRPRPCRVPRP are within 0.2 log units of each other in “shrunken log2 fold change” value: 0.18 for the first, 0.00293 for the second.

First: RRIRLRPPRLPRPRPRPFTAPRP
Second: RRIRQRPPRLPRPRPRPAENPRP
The “shrunken log2 fold change” value of the first is lower: -0.625 for the first, 0.0325 for the second.

RRIRQRPPRLPRPRPRPVMGPRP and RRIRQRPPRLPRPRPRPEFRPRP are within 0.2 log units of each other in “shrunken log2 fold change” value: 0.0224 for the first, 0.0728 for the second.

Compared with RRIRARPPRLPRPRPRPNTVPRP, RRIRTRPPRLPRPRPRPVAFPRP is lower in “shrunken log2 fold change” value: 0.0514 for the first, -0.225 for the second.

Going from RRIRKRPPRLPRPRPRPCSGPRP to RRIRGRPPRLPRPRPRPPFAPRP, the “shrunken log2 fold change” value rises from 0.00663 to 1.91.

Compared with RRIRRRPPRLPRPRPRPRNMPRP, RRIRYRPPRLPRPRPRPLNKPRP is lower in “shrunken log2 fold change” value: 0.112 for the first, -0.449 for the second.

Going from RRIRVRPPRLPRPRPRPPRPPRP to RRIRQRPPRLPRPRPRPEMHPRP, the “shrunken log2 fold change” value falls from 0.648 to 0.393.

Compared with RRIRIRPPRLPRPRPRPHNHPRP, RRIRRRPPRLPRPRPRPSIAPRP is higher in “shrunken log2 fold change” value: -0.93 for the first, 0.238 for the second.

With RRIRVRPPRLPRPRPRPTCWPRP the “shrunken log2 fold change” value was 0.835.
